{"source": "patent US20180289832A1", "about": "(MAGENTA THERAPEUTICS, published 2018)", "binders": {"B1": {"name": "murine anti-CD137 antibody BBK2 (BBK2-mIgG1) (antibody, V domains shown)", "VH": "QVQLQQPGAELVRPGASVKLSCKASGYTFTSYWINWVKQRPGQGLEWIGNIYPSDSYTNYNQKFKDKATLTVDKSSNTVYMQLNSPTSEDSAVYYCTRNGVEGYPHYYAMEYWGQGTSVTVSS", "VL": "DIQMTQTTSALSASLGDRVTIGCRASQDLSNHLYWYQQKPDGTVKLLIYYTSRLHSGVPSRFSGSGSGTDYSLTIRNLEQEDVATYFCQQGYTLPYTFGGGTKLEIK", "notes": "Mouse monoclonal IgG1, kappa (Thermo Fisher); also called BBK-mIgG1; murine BBK2"}}, "key": {"[1]": {"target": "T1, human CD137 (hCD137) stably over-expressed on Jurkat cells (human, UniProt Q07011 24-255)", "T1 construct": "also called 4-1BB; TNFRSF9", "T1 sequence (Q07011 24-255 limits assumed)": "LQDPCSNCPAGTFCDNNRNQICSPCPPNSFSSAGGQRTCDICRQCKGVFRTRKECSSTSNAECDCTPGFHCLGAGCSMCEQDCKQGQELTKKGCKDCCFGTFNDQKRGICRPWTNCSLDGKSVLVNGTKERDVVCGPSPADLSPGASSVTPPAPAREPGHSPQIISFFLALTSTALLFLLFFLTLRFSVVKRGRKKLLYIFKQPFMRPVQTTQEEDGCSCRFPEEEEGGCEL", "assay": "flow cytometry on Jurkat cells over-expressing hCD137; antibody titration 4 h at 4 C, anti-mouse AF488 secondary, geometric MFI", "experimental": "(§1) Jurkat cells (i.e., an immortalized human T lymphocyte cell line) characterized by stable, over-expression of hCD137 were plated at 20,000 cells/well and stained with a titration of primary murine anti-CD137 antibody BBK2 (BBK2-mIgG1) for 4 hours at 4° C. Secondary anti-mouse AF488 stain, at a constant amount, was added for 30 minutes at 4° C. After washing, plates were run on a flow cytometer and binding of BBK2-mIgG1 (and the negative control, i.e., mIgG1) was determined based on geometric mean fluorescence intensity in the AF488 channel."}, "[2]": {"target": "T1, human CD137 (hCD137) stably …", "assay": "flow cytometry on Jurkat cells stably over-expressing hCD137; titration of the primary antibody 4 h at 4 °C, secondary anti-mouse AF488, gMFI", "experimental": "as §1"}}, "data": [{"binder": "B1", "values": [{"measurement": "EC50", "setting": "[1]", "result": 35, "unit": "µM"}, {"measurement": "EC50", "setting": "[2]", "result": 35, "unit": "pM"}]}]}
